± gives the uncertainty stated by the source.
B1: POU domain, class 2, transcription factor 1, residues 285 to 354; numbered along this chain, P14859 (parent)
chain: LEELEQFAKTFKQRRIKLGFTQGDVGLAMGKLYGNDFSQTTISRFEALNLSFKNMCKLKPLLEKWLNDAE

Variants of: B1
Assay: abundance fitness (aPCA) (normalised: wild type 0, dead -1); higher = more abundant; growth selection in yeast, the domain comes from the species named
Details: Homo sapiens
With LEELEAFAKTFKQRRIKLGFTQGDVGLAMGKLYGNDFSQTTISRFEALNLSFKNMCKLKPLLEKWLNDAE [Q6A] the abundance fitness was 0.015 ± 0.049. Work on LEELESFAKTFKQRRIKLGFTQGDVGLAMGKLYGNDFSQTTISRFEALNLSFKNMCKLKPLLEKWLNDAE [Q6S] yielded an abundance fitness of -0.017 ± 0.026. LEELEEFAKTFKQRRIKLGFTQGDVGLAMGKLYGNDFSQTTISRFEALNLSFKNMCKLKPLLEKWLNDAE [Q6E] showed an abundance fitness of 0.034 ± 0.055. Work on LEELETFAKTFKQRRIKLGFTQGDVGLAMGKLYGNDFSQTTISRFEALNLSFKNMCKLKPLLEKWLNDAE [Q6T] yielded an abundance fitness of 0.025 ± 0.04. Work on LEELEIFAKTFKQRRIKLGFTQGDVGLAMGKLYGNDFSQTTISRFEALNLSFKNMCKLKPLLEKWLNDAE [Q6I] yielded an abundance fitness of -0.009 ± 0.051. Variant LEELEDFAKTFKQRRIKLGFTQGDVGLAMGKLYGNDFSQTTISRFEALNLSFKNMCKLKPLLEKWLNDAE [Q6D] has an abundance fitness of -0.086 ± 0.09. LEELENFAKTFKQRRIKLGFTQGDVGLAMGKLYGNDFSQTTISRFEALNLSFKNMCKLKPLLEKWLNDAE [Q6N] gave an abundance fitness of 0.074 ± 0.071. LEELEVFAKTFKQRRIKLGFTQGDVGLAMGKLYGNDFSQTTISRFEALNLSFKNMCKLKPLLEKWLNDAE [Q6V] showed an abundance fitness of -0.076 ± 0.031. LEELEHFAKTFKQRRIKLGFTQGDVGLAMGKLYGNDFSQTTISRFEALNLSFKNMCKLKPLLEKWLNDAE [Q6H] gave an abundance fitness of -0.001 ± 0.025. LEELEFFAKTFKQRRIKLGFTQGDVGLAMGKLYGNDFSQTTISRFEALNLSFKNMCKLKPLLEKWLNDAE [Q6F] showed an abundance fitness of -0.059 ± 0.041. With LEELEKFAKTFKQRRIKLGFTQGDVGLAMGKLYGNDFSQTTISRFEALNLSFKNMCKLKPLLEKWLNDAE [Q6K] the abundance fitness was 0.034 ± 0.03. In the case of LEELELFAKTFKQRRIKLGFTQGDVGLAMGKLYGNDFSQTTISRFEALNLSFKNMCKLKPLLEKWLNDAE [Q6L], the abundance fitness is reported as -0.031 ± 0.019. With LEELEWFAKTFKQRRIKLGFTQGDVGLAMGKLYGNDFSQTTISRFEALNLSFKNMCKLKPLLEKWLNDAE [Q6W] the abundance fitness was -0.058 ± 0.032. In the case of LEELEMFAKTFKQRRIKLGFTQGDVGLAMGKLYGNDFSQTTISRFEALNLSFKNMCKLKPLLEKWLNDAE [Q6M], the abundance fitness is reported as -0.038 ± 0.021. Variant LEELEGFAKTFKQRRIKLGFTQGDVGLAMGKLYGNDFSQTTISRFEALNLSFKNMCKLKPLLEKWLNDAE [Q6G] has an abundance fitness of -0.012 ± 0.051. Variant LEELEYFAKTFKQRRIKLGFTQGDVGLAMGKLYGNDFSQTTISRFEALNLSFKNMCKLKPLLEKWLNDAE [Q6Y] has an abundance fitness of -0.03 ± 0.05. LEELEPFAKTFKQRRIKLGFTQGDVGLAMGKLYGNDFSQTTISRFEALNLSFKNMCKLKPLLEKWLNDAE [Q6P] showed an abundance fitness of -0.245 ± 0.031. With LEELEQGAKTFKQRRIKLGFTQGDVGLAMGKLYGNDFSQTTISRFEALNLSFKNMCKLKPLLEKWLNDAE [F7G] the abundance fitness was -0.07 ± 0.28. For LEELEQWAKTFKQRRIKLGFTQGDVGLAMGKLYGNDFSQTTISRFEALNLSFKNMCKLKPLLEKWLNDAE [F7W], the abundance fitness was 0.123 ± 0.29. Variant LEELEQVAKTFKQRRIKLGFTQGDVGLAMGKLYGNDFSQTTISRFEALNLSFKNMCKLKPLLEKWLNDAE [F7V] has an abundance fitness of 0.191 ± 0.27. In the case of LEELEQCAKTFKQRRIKLGFTQGDVGLAMGKLYGNDFSQTTISRFEALNLSFKNMCKLKPLLEKWLNDAE [F7C], the abundance fitness is reported as -0.011 ± 0.13. In the case of LEELEQMAKTFKQRRIKLGFTQGDVGLAMGKLYGNDFSQTTISRFEALNLSFKNMCKLKPLLEKWLNDAE [F7M], the abundance fitness is reported as -0.263 ± 0.26. For LEELEQSAKTFKQRRIKLGFTQGDVGLAMGKLYGNDFSQTTISRFEALNLSFKNMCKLKPLLEKWLNDAE [F7S], the abundance fitness was -0.324 ± 0.088. Variant LEELEQIAKTFKQRRIKLGFTQGDVGLAMGKLYGNDFSQTTISRFEALNLSFKNMCKLKPLLEKWLNDAE [F7I] has an abundance fitness of -0.298 ± 0.17. Work on LEELEQLAKTFKQRRIKLGFTQGDVGLAMGKLYGNDFSQTTISRFEALNLSFKNMCKLKPLLEKWLNDAE [F7L] yielded an abundance fitness of -0.297 ± 0.14. In the case of LEELEQAAKTFKQRRIKLGFTQGDVGLAMGKLYGNDFSQTTISRFEALNLSFKNMCKLKPLLEKWLNDAE [F7A], the abundance fitness is reported as -0.355 ± 0.18. In the case of LEELEQRAKTFKQRRIKLGFTQGDVGLAMGKLYGNDFSQTTISRFEALNLSFKNMCKLKPLLEKWLNDAE [F7R], the abundance fitness is reported as -0.437 ± 0.11. Variant LEELRQFAKTFKQRRIKLGFTQGDVGLAMGKLYGNDFSQTTISRFEALNLSFKNMCKLKPLLEKWLNDAE [E5R] has an abundance fitness of -0.034 ± 0.024. In the case of LEELMQFAKTFKQRRIKLGFTQGDVGLAMGKLYGNDFSQTTISRFEALNLSFKNMCKLKPLLEKWLNDAE [E5M], the abundance fitness is reported as -0.028 ± 0.037. Work on LEELHQFAKTFKQRRIKLGFTQGDVGLAMGKLYGNDFSQTTISRFEALNLSFKNMCKLKPLLEKWLNDAE [E5H] yielded an abundance fitness of -0.116 ± 0.077. LEELAQFAKTFKQRRIKLGFTQGDVGLAMGKLYGNDFSQTTISRFEALNLSFKNMCKLKPLLEKWLNDAE [E5A] gave an abundance fitness of -0.022 ± 0.026. Variant LEELPQFAKTFKQRRIKLGFTQGDVGLAMGKLYGNDFSQTTISRFEALNLSFKNMCKLKPLLEKWLNDAE [E5P] has an abundance fitness of -0.571 ± 0.075. For LEELTQFAKTFKQRRIKLGFTQGDVGLAMGKLYGNDFSQTTISRFEALNLSFKNMCKLKPLLEKWLNDAE [E5T], the abundance fitness was -0.004 ± 0.041. With LEELKQFAKTFKQRRIKLGFTQGDVGLAMGKLYGNDFSQTTISRFEALNLSFKNMCKLKPLLEKWLNDAE [E5K] the abundance fitness was -0.017 ± 0.04. In the case of LEELGQFAKTFKQRRIKLGFTQGDVGLAMGKLYGNDFSQTTISRFEALNLSFKNMCKLKPLLEKWLNDAE [E5G], the abundance fitness is reported as -0.019 ± 0.021. With LEELQQFAKTFKQRRIKLGFTQGDVGLAMGKLYGNDFSQTTISRFEALNLSFKNMCKLKPLLEKWLNDAE [E5Q] the abundance fitness was -0.125 ± 0.053. For LEELFQFAKTFKQRRIKLGFTQGDVGLAMGKLYGNDFSQTTISRFEALNLSFKNMCKLKPLLEKWLNDAE [E5F], the abundance fitness was -0.13 ± 0.046. With LEELIQFAKTFKQRRIKLGFTQGDVGLAMGKLYGNDFSQTTISRFEALNLSFKNMCKLKPLLEKWLNDAE [E5I] the abundance fitness was -0.1 ± 0.08.

— the Human Domainome abundance scans (Beltran et al. 2025)
